In US20160272706A1:

What was measured:
[1] = target: cynomolgus monkey FcRn (cynomolgus monkey) (UniProt Q8SPV9); experiment: SPR (BIAcore 3000), IgG immobilised on CM5, FcRn injected at pH 6, steady-state 1:1 fit
[2] = target: human FcRn protein (human) (UniProt P55899); experiment: as above
[3] = target: cynomolgus monkey FcRn (cynomolgus monkey) (UniProt Q8SPV9); experiment: SPR (BIAcore 3000), IgG immobilised on CM5, FcRn injected; binding at pH 7.4 as a percentage of that at pH 6
[4] = target: human FcRn protein (human) (UniProt P55899); experiment: as above

Sequence of human FcRn protein (human) (P55899 24-290 limits assumed, chain 1 of 2): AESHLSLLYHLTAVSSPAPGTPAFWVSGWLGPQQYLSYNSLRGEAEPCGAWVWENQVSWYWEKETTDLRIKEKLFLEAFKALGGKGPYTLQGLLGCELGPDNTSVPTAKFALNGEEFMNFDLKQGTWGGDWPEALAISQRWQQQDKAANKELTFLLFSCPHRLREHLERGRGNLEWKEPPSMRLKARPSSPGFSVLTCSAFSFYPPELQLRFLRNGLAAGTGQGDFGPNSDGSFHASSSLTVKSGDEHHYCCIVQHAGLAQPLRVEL
Sequence of human FcRn protein (human) (P61769 21-119 limits assumed, chain 2 of 2, further chain): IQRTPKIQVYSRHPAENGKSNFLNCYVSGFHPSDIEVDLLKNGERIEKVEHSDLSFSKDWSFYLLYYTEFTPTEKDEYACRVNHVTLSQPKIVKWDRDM
Sequence of cynomolgus monkey FcRn (cynomolgus monkey) (Q8SPV9 24-290 limits assumed, chain 1 of 2): as the sequence (P55899 24-290 limits assumed, chain 1 of 2) above, with N39D, E44Q, G99S, S189G, S190N, L217M counted along it
Sequence of cynomolgus monkey FcRn (cynomolgus monkey) (Q8SPW0 21-119 limits assumed, chain 2 of 2, further chain): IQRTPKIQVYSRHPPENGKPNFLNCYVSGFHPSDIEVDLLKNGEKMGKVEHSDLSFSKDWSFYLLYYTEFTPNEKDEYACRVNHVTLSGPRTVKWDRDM

Substance NIP228 (antibody) has a Kd [1] of 1860 nM, a Kd [2] of 2040 nM and a pH7.4/pH6 [3] of 1%. For the same substance, the pH7.4/pH6 [4] was 1%.
